From patent US20230174642A1, “AFFINITY-MATURATED ANTI-ASIC1a ANTIBODIES” (SHANGHAITECH UNIVERSITY, priority 2019, published 2023)

T1: hASIC1a-mCherry fusion on a stable cell line (human, UniProt P78348 1-528)
T1 sequence (looked up): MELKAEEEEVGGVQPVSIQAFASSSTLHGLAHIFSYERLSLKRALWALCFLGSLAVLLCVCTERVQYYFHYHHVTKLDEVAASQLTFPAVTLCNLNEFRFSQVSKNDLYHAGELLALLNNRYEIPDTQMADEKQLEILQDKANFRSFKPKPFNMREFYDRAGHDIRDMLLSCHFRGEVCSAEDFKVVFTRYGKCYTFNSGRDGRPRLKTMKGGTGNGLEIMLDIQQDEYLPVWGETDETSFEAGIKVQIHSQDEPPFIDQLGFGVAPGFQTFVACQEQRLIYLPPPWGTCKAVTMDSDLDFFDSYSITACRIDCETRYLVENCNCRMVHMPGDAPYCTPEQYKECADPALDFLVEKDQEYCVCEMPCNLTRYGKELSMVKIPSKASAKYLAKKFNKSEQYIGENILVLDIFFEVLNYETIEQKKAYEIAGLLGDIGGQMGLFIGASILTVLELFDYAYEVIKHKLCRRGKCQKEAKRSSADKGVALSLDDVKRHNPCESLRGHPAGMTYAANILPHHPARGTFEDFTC

T2: hASIC1a on CHO-K1 cells stably expressing hASIC1a (human, UniProt P78348 1-528)
T2 sequence (looked up): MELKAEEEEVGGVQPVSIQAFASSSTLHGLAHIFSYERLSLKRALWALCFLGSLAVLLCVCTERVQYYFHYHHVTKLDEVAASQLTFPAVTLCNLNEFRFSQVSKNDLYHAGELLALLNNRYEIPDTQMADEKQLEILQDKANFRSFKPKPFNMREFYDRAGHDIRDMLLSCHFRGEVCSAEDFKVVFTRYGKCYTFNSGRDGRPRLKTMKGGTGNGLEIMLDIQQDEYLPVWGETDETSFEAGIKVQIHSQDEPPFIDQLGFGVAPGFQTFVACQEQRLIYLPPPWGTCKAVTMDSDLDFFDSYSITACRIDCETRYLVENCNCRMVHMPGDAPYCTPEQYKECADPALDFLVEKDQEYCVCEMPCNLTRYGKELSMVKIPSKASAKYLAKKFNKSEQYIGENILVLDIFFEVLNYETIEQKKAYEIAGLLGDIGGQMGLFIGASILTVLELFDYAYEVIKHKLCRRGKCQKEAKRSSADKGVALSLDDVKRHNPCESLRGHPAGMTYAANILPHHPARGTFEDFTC

T3: mouse ASIC1a-eYFP (mASIC1a-eYFP) on transiently transfected CHO-K1 cells (mouse, UniProt Q6NXK8 1-526)
T3 construct: whole, on cells; not shown: eYFP fusion partner
T3 sequence (looked up): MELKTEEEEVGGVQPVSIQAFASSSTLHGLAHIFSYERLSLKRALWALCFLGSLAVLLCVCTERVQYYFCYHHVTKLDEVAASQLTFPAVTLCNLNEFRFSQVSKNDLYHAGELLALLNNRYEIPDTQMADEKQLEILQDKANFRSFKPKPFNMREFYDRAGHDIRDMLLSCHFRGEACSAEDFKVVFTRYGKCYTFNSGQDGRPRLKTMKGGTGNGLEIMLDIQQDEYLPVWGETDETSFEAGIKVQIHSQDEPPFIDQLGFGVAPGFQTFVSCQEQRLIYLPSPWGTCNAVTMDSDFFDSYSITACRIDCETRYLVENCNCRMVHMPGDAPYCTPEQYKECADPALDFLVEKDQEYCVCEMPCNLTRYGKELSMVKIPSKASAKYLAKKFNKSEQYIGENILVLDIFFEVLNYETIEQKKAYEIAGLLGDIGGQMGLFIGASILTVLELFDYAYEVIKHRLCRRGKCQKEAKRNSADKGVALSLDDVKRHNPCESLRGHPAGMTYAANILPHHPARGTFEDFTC

T4: mouse ASIC1a (mASIC1a-eYFP) (Mus musculus, UniProt Q6NXK8)
T4 construct: expressed in transfected cells; host or cells: CHO-K1 (transient)
T4 sequence (Q6NXK8 1-526): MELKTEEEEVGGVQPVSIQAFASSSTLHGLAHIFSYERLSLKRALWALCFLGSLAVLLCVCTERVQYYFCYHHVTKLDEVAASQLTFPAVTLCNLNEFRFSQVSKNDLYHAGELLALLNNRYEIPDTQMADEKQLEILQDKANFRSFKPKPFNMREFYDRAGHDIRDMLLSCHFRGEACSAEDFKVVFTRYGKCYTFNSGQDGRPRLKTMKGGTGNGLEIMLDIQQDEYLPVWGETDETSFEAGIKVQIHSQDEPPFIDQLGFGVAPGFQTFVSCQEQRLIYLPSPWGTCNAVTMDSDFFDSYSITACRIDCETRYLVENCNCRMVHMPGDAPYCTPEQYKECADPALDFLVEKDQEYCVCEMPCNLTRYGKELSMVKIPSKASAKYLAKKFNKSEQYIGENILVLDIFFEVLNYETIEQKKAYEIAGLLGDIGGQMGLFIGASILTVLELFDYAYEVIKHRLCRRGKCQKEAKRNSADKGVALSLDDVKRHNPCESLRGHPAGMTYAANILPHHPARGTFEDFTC

T5: human ASIC1a (hASIC1a-eYFP) (Homo sapiens, UniProt P78348)
T5 construct: expressed in transfected cells; host or cells: CHO-K1 (transient)
T5 sequence (P78348 1-528): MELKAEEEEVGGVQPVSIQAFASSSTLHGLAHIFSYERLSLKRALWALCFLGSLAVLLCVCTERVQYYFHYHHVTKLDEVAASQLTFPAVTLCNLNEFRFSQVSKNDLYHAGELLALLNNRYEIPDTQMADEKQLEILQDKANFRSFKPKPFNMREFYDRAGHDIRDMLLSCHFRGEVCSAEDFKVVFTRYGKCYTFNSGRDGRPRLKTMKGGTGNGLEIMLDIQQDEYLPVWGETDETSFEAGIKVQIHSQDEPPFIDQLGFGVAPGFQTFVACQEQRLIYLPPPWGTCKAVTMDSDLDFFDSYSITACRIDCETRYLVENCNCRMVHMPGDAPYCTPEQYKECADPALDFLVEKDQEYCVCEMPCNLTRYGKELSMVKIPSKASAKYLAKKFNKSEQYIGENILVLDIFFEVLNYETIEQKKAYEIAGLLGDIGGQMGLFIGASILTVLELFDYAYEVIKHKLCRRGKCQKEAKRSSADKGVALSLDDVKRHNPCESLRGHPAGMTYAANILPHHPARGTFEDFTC

T6: rat ASIC1a (rASIC1a-eYFP) (Rattus norvegicus, UniProt P55926)
T6 construct: expressed in transfected cells; host or cells: CHO-K1 (transient)
T6 sequence (P55926 1-526): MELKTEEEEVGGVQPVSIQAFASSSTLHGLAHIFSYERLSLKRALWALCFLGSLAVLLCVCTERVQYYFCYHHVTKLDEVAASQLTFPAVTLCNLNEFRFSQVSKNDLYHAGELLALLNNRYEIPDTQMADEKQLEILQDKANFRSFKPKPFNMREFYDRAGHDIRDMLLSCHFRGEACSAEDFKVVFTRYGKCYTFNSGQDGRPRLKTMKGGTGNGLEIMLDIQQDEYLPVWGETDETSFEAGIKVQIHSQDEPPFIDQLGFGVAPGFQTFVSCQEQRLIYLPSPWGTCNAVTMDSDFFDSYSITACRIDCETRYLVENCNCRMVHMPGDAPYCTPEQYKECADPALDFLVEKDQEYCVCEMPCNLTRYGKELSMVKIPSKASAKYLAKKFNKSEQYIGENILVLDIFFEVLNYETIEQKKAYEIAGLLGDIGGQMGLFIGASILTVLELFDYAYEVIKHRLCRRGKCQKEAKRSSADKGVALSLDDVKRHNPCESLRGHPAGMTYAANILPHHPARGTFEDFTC


Experiments:
[1] = biological target: T1, hASIC1a-mCherry fusion on a stable cell …; experiment: cell-based or functional assay
[2] = biological target: T2, hASIC1a on CHO-K1 cells stably …; experiment: cell-based or functional assay
[3] = biological target: T3, mouse ASIC1a-eYFP (mASIC1a-eYFP) on …; experiment: FACS on transiently transfected CHO-K1 cells
Method: (§1) To investigate the species selectivity of ASC06-IgG1 affinity-matured antibodies, plasmids encoding fusion proteins of eYFP with […] homologs of ASIC1a were constructed. These plasmids included those encoding human ASIC1a (hASIC1a-eYFP), mouse ASIC1a (mASIC1a-eYFP), and rat ASIC1a (rASIC1a-eYFP). CHO-K1 cells were transiently transfected with the ASIC1a-eYFP plasmids, and a fluorescence activated cell sorting (FACS)-based binding assay was carried out to determine binding to the homologs or isoforms of ASIC1a expressed on the cell surface. An isotype control was used as a negative control for binding (NC). ASC06-IgG1 was used as a positive control. Summarily, the CHO-K1 cells expressing the ASIC1a-eYFP (green) homologs were stained with the indicated antibody (red) and subjected to FACS.
To examine the ASIC isotype selectivity of ASC06-IgG1 affinity-matured antibodies, plasmids encoding fusion proteins of eYFP with isoforms of […] were constructed. These plasmids included those encoding human ASIC1b (hASIC1b-eYFP), human ASIC2a (hASIC2a-eYFP), and human ASIC3a (hASIC3a-eYFP). CHO-K1 cells were transiently transfected with these plasmids and used in a FACS-based binding assay disclosed herein. Binding of ASC06-IgG1 to CHO-K1 cells expressing human ASIC1a-eYFP (hASIC1a-eYFP) was used as a positive control (data not shown and FIG. 2), and an isotype control was used as a negative control for binding (NC).

[4] = biological target: T4, mouse ASIC1a (mASIC1a-eYFP); experiment: FACS-based binding assay, transiently transfected CHO-K1 cells (species selectivity); conditions: double positive population
Method: as §1

[5] = biological target: T5, human ASIC1a (hASIC1a-eYFP); experiment: as above; conditions: double positive population
Method: as §1

[6] = biological target: T6, rat ASIC1a (rASIC1a-eYFP); experiment: as above; conditions: double positive population
Method: as §1

Row | Molecule | IC50 for the inhibition of acid induced ASIC1a-mediated calcium influx, FLIPR-based assay [1] | Percent inhibition of the acid induced-hASIC1a currents, 30 nM antibody (Patch Clamp) [2] | Percent inhibition of the acid induced-hASIC1a currents, 100 nM antibody (Patch Clamp) [2] | binding result [3] | binding to cells expressing mASIC1a-eYFP [4] | binding to cells expressing hASIC1a-eYFP [5] | binding to cells expressing rASIC1a-eYFP [6]
1 | ASC06-03-IgG1 (antibody, V domains shown, Full length IgG1) VH: QVQLQQSGGGLVQPGGSLRLSCAASGFTFSSYAMSWVRQAPGKGLEWVSAISGSGGSTYYADSVKGRFTISRDNSKNTLYLQMNSLRAEDTAVYYCAKDSFYGRAKGSWGQGTLVTVSS VL: QSALTQPASVSGSPGQSITISCTGTSSDVGAYNYVSWYQQQPGKAPKLMIYGVSNRPSGVSNRFSGSKSGNAASLTISGLQAEDEADYYCSSYTSSSTYVFGTGTKLTVLG | 2.61 nM | 79.4% | 89.7% | binds |  |  | 
2 | ASC06-IgG1: parental (WT) ASIC1a-specific antagonist antibody; VL SEQ ID NO: 2, VH SEQ ID NO: 7, VH-CDR3 DSFYGYSKGD (antibody, V domains shown, IgG1 constant regions; Amino acid sequence VH of ASC06; Amino acid sequence VL of ASC06) VH: QVQLQQSGGGLVQPGGSLRLSCAASGFTFSSYAMSWVRQAPGKGLEWVSAISGSGGSTYYADSVKGRFTISRDNSKNTLYLQMNSLRAEDTAVYYCAKDSFYGYSKGDWGQGTLVTVSS VL: QSALTQPASVSGSPGQSITISCTGTSSDVGAYNYVSWYQQQPGKAPKLMIYGVSNRPSGVSNRFSGSKSGNAASLTISGLQAEDEADYYCSSYTSSSTYVFGTGTKLTVLG |  |  |  |  | bound | bound | bound
3 | ASC06-04-IgG1: affinity-matured ASC06 derivative, VH-CDR3 DSFYGRAKGV (SEQ ID NO: 17) (antibody, V domains shown) VH: QVQLQQSGGGLVQPGGSLRLSCAASGFTFSSYAMSWVRQAPGKGLEWVSAISGSGGSTYYADSVKGRFTISRDNSKNTLYLQMNSLRAEDTAVYYCAKDSFYGRAKGVWGQGTLVTVSS VL: QSALTQPASVSGSPGQSITISCTGTSSDVGAYNYVSWYQQQPGKAPKLMIYGVSNRPSGVSNRFSGSKSGNAASLTISGLQAEDEADYYCSSYTSSSTYVFGTGTKLTVLG |  |  |  |  | bound | bound | bound
4 | ASC06-01-IgG1: affinity-matured ASC06 derivative, VH-CDR3 DSYFGYSKGD (SEQ ID NO: 11) (antibody, V domains shown) VH: QVQLQQSGGGLVQPGGSLRLSCAASGFTFSSYAMSWVRQAPGKGLEWVSAISGSGGSTYYADSVKGRFTISRDNSKNTLYLQMNSLRAEDTAVYYCAKDSYFGYSKGDWGQGTLVTVSS VL: QSALTQPASVSGSPGQSITISCTGTSSDVGAYNYVSWYQQQPGKAPKLMIYGVSNRPSGVSNRFSGSKSGNAASLTISGLQAEDEADYYCSSYTSSSTYVFGTGTKLTVLG |  |  |  |  | bound | bound | bound
